Results as given in US20240118272A1.

Columns and labels:
[1] = molecular target: CD9(FL)-ALP conjugate (human; bovine); test: HI-1000 capture immunoassay; calibrator C4, 15 ng/mL; run 1
[2] = molecular target: CD9(FL)-ALP conjugate (human; bovine); test: HI-1000 capture immunoassay; calibrator C2, 5.48 mU/L; run 1
[3] = molecular target: CD9(FL)-ALP conjugate (human; bovine); test: HI-1000 capture immunoassay; calibrator C5, 30 ng/mL; mean of 3
[4] = molecular target: CD9(FL)-ALP conjugate (human; bovine); test: HI-1000 capture immunoassay; calibrator C4, 21.93 mU/L; run 2
[5] = molecular target: CD9(ECD)-ALP conjugate (human; bovine); test: HI-1000 capture immunoassay; primary calibrator C4, 50.05 ng/mL; run 1
Chain of CD9(ECD)-ALP conjugate (human; bovine) (chain, as listed by the source, chain 1 of 2): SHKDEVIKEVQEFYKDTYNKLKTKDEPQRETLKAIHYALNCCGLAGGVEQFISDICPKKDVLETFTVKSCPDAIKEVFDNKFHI
Chain of CD9(ECD)-ALP conjugate (human; bovine) (P19111 20-506, chain 2 of 2): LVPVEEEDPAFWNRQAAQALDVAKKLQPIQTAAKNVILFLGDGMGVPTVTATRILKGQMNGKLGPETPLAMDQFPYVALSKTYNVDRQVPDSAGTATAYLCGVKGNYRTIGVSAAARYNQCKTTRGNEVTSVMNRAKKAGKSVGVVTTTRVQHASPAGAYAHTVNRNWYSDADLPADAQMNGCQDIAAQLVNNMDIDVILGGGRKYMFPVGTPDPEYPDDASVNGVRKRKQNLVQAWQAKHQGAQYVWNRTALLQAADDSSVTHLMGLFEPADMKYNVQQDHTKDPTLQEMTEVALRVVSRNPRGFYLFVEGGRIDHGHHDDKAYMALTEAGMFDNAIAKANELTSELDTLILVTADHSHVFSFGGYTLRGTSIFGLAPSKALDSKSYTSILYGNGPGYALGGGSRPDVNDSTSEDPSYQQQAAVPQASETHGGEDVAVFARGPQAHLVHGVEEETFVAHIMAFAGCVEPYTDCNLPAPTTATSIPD

[6] = molecular target: CD9(ECD)-ALP conjugate (human; bovine); test: HI-1000 capture immunoassay; secondary calibrator C4; mean of 3 aliquots
[7] = molecular target: CD9(ECD)-ALP conjugate (human; bovine); test: HI-1000 capture immunoassay; secondary calibrator C3, 14.32 U/L; mean of 3
[8] = molecular target: CD9(ECD)-ALP conjugate (human; bovine); test: HI-1000 capture immunoassay; secondary calibrator C2, 3.84 U/L; run 2
[9] = molecular target: CD9(ECD)-ALP conjugate (human; bovine); test: HI-1000 capture immunoassay; secondary calibrator C1; mean of 3 aliquots
[10] = molecular target: CD9(ECD)-ALP conjugate (human; bovine); test: HI-1000 capture immunoassay; secondary calibrator C5, 387.01 U/L; run 2
[11] = molecular target: CD9(ECD)-ALP conjugate (human; bovine); test: HI-1000 capture immunoassay; primary calibrator C1, 1.52 ng/mL; run 2
[12] = molecular target: CD9(ECD)-ALP conjugate (human; bovine); test: HI-1000 capture immunoassay; secondary calibrator C2, 3.84 U/L; run 3
[13] = molecular target: CD9(ECD)-ALP conjugate (human; bovine); test: HI-1000 capture immunoassay; secondary calibrator C3, 14.32 U/L; run 3
[14] = molecular target: CD9(FL)-ALP conjugate (human; bovine); test: HI-1000 capture immunoassay; calibrator C5, 43.86 mU/L; mean of 3
[15] = molecular target: CD9(FL)-ALP conjugate (human; bovine); test: HI-1000 capture immunoassay; calibrator C1, 1.0 ng/mL; run 1
[16] = molecular target: CD9(FL)-ALP conjugate (human; bovine); test: HI-1000 capture immunoassay; calibrator C5, 43.86 mU/L; run 2
[17] = molecular target: CD9(FL)-ALP conjugate (human; bovine); test: HI-1000 capture immunoassay; calibrator C3, 7.4 ng/mL; run 1
[18] = molecular target: CD9(ECD)-ALP conjugate (human; bovine); test: HI-1000 capture immunoassay; thawed aliquot 2 of secondary calibrator C4
[19] = molecular target: CD9(FL)-ALP conjugate (human; bovine); test: HI-1000 capture immunoassay; calibrator C1, 1.0 ng/mL; run 2
[20] = molecular target: CD9(ECD)-ALP conjugate (human; bovine); test: HI-1000 capture immunoassay; primary calibrator C2, 4.89 ng/mL; run 2

Chain of CD9(FL)-ALP conjugate (human; bovine) (chain, as listed by the source, chain 1 of 2): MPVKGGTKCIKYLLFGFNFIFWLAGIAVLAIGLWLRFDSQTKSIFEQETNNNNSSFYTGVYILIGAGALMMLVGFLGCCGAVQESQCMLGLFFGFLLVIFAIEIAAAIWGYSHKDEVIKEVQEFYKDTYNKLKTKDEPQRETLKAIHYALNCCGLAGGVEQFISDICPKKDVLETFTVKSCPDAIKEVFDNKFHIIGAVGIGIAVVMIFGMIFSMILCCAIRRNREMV
Chain of CD9(FL)-ALP conjugate (human; bovine) (P19111 20-506, chain 2 of 2): as the sequence (P19111 20-506, chain 2 of 2) above

Count value [1]: 13000 count | Count value [2]: 3630 count | Count value (av) [3]: 25900 count | Count value [4]: 13200 count | Count value [5]: 22400 count | Count value (av) [6]: 11600 count | Count value (av) [7]: 8090 count | Count value [8]: 2300 count | Count value (av) [9]: 811 count | Count value [10]: 218000 count | Count value [11]: 1100 count | Count value [12]: 2450 count | Count value [13]: 8060 count | Count value (av) [14]: 26400 count | Count value [15]: 1420 count | Count value [16]: 25600 count | Count value [17]: 7040 count | Count value [18]: 12000 count | Count value [19]: 1550 count | Count value [20]: 2520 count
Substance: anti-CD9 antibody (Clone: H19a)
